Results as given in the supplement of paper PMC12764529.
± gives the half width of the 95% confidence interval.

Assay: folding stability dG unfold from trypsin proteolysis; higher = more stable
How it was run: (§1)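 Designed mini-proteins (under 80 residues, no cysteine) in a PA-tagged cDNA display construct were digested with trypsin and chymotrypsin. Each protease was used at 11 concentrations (threefold dilutions) plus a no-protease condition, followed by sequencing. K50 was inferred by Bayesian fitting of sequencing counts, and unfolding free energy was derived against a sequence-predicted unfolded-state K50 and a shared folded-state K50, per protease or combined. Only designs with AlphaFold2 dimer inter-PAE above 15 were kept.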

Point of comparison: “SAGGYDFDPRGEFPFPNGVKVEVWEMTWPDGNPMTMIEIEATIPPPPKPPMSPEDAKENNKDMAKNNSAGGS [r16_8_TrROS]”, “folding stability dG unfold” value -0.415 ± 0.12 kcal/mol. Against it:
- SAGGSAGIAKKNNLTLKVTVEKKGDKLLVTVEITYPDGTKKTITIELNIKLVPEVPPVHPDEPGFGSAGGSA [r15_843_TrMRF] — higher, 2.58 ± 0.17 kcal/mol
- TIVIENASVEQIKNAIKEAIKEGKEVKIIIKASPEEKEKIIEELKKLPEIKKVEKLPNGSIKITIKAKELKS [r1_324_TrROS_Hall] — higher, 1.76 ± 0.083 kcal/mol
- SAGGSAGGSAGASLKEELGFAEVLSRSPTPDTEPLLLKHPEGGELVTVEVDAATAVEWLESAGGSAGGSAGG [r11_630_JUSTAS] — higher, 0.343 ± 0.091 kcal/mol
- SGFTFSTLIAPDESLSITVKEPNSSTTTSFDFTVDPATGAVSATATTTPPDGKTQTFSVTIPVSPGAAALSA [r9_770_JUSTAS] — higher, 1.02 ± 0.08 kcal/mol
- SAGGSAGGSAGWLMIMFPIPPNADNVRIKWPDGPTQEHEMEPGSPVMIMIPPGNIKIEVDSAGGSAGGSAGG [r11_52_TrROS] — higher, 1.13 ± 0.054 kcal/mol
- SAGGSAGGKIIINGKEIEPGETITLPNGLKLEVVDGKIKLVVRDEETGEEKEITLSAEELKKLLSAGGSAGG [r6_940_TrROS_Hall] — higher, 2.65 ± 0.12 kcal/mol
- SAGGSAGGSAPDNVEIEVYELPAGMYRVKIWPPGGNRHEFNFPPGEPKKIKIPPGVSIEIWPFSAGGSAGGS [r12_517_TrROS] — higher, 0.462 ± 0.15 kcal/mol
- SDYMPVHKMESDGKRNPNGQHEYEPKMEPVWVPVPPPPPRIRIPPEWREKLKELAEKLGHPITDDDINKISA [r9_487_TrROS] — within error, -0.283 ± 0.19 kcal/mol
- SAGGSAGGSAGMKTTTLEVSTDPSGYTTTKTKIEIINENTPSISTSTVVTAVTPPAPPIASAGGSAGGSAGG [r11_830_JUSTAS] — higher, 0.133 ± 0.017 kcal/mol
- SAGGSAGGPKEYYRVTVYVRNKDGEWEKVAEIEVPGMTEEELKELLAKLGLPPGAEVEIKIEKVSAGGSAGG [r6_88_TrROS_Hall] — higher, 5.02 ± 0.49 kcal/mol
- SAGGSAKPVIVKIHFPNMKPEKILELAKEFGAVPLKMDPNKGVAIVLATEEKVEEIAAKGNFKIEASAGGSA [r15_731_TrMRF] — higher, 0.736 ± 0.043 kcal/mol
- SAGGSAGGSAGGNEEDIEKAVKEAKEKGENAEVKVTLPNGKEETVYIEVNVKEPSEKLKSAGGSAGGSAGGS [r10_573_JUSTAS] — lower, -1.05 ± 0.47 kcal/mol
- SAGGSAGGMIKITITVPPGVSPEFVREKIAPLGVEVLSVEPLPDGTHRVTIEIPPEITKNPELLSAGGSAGG [r6_470_JUSTAS] — higher, 1.68 ± 0.051 kcal/mol
- SAGGKELILKLKIEVNGKTLTIEVKVSPEELKKLLDELKKLGIKEIEIESIEFDKETNEIKVKVKVKSAGGS [r8_219_TrROS_Hall] — higher, 2.52 ± 0.063 kcal/mol
- SAGGSAGGSKKKTVEEILKELKKKKNKIIKIKYKDGSTYYINIKTGKIIKLKNIKNVKIEILPSAGGSAGGS [r20_44_TrROS_Hall] — higher, 2.73 ± 0.14 kcal/mol
- SHWVRKELQEKGYPVKDIEMNPPQGYFYITIQRKRPRKGKPKKKEITIPMDPNMTPDNMLWMARNALDAYSA [r9_184_TrROS] — higher, 1.05 ± 0.14 kcal/mol
- SAGGMVEIELVPMSEEELKKLREELPENEILIVVKEDGLVLIVRVEKSEEEAEKLAEELRKLLEELPSAGGS [r16_311_TrROS_Hall] — higher, 2.05 ± 0.17 kcal/mol
- SVYIPIPMGDPEGLKEMLDFIKNILEKNQENGYENVPIPIHMPNGGPFEFPIDPNSTLEEQLDQIEKFIESA [r9_127_TrROS] — higher, 1.56 ± 0.11 kcal/mol
- SAGGSAGGSKKVKEVTITVKNKDGKTVKITKIYKKKDGSKYVLIKDKKTKKTYKISLEDLKKLSAGGSAGGS [r12_488_TrROS_Hall] — higher, 1.11 ± 0.05 kcal/mol
- SAGGKVVVVPFPGPVTPETVAALAAKFIEEGLYDVPLVVVSEVEGRRPDGRPGRRRFGFVYVAKAPKSAGGS [r16_44_TrMRF] — higher, 1.23 ± 0.051 kcal/mol
- SMKLIGVEEFENAKAVLFEKEDKYIKLVFIPEDIPEGEEIYYIKVFEGDEIIEEKAVKPEEIEEAIKEAGSA [r9_57_TrMRF] — higher, 0.00129 ± 0.12 kcal/mol
- SAMSVTISFDPKGPGGTLTITADPNSPQIEKFINELKKKLNLDIKSYTKTILPNGTVKVTLTYSKINLPSAG [r14_655_JUSTAS] — higher, 4.05 ± 0.11 kcal/mol
- VDPDDPEYQRFVYFVQELAKTIVEEHQEEGPTVDELYITVDPNNVKIEPVDMPPDEWEEHQKEGRPVIPIRS [r1_134_TrROS] — higher, 0.179 ± 0.14 kcal/mol
- SAGGSAGGSAGSMAVDLKITISEDPSKPTYTGTVHLPDGTVVTVTSTGSPEELRARLEALLSAGGSAGGSAG [r3_143_JUSTAS] — higher, 0.0769 ± 0.076 kcal/mol
- SADLAAELEEGGFVVTITETVVSVTPQTLEKDSFVVEKDVVTTITVTPPPVAPPPPDPANLRDAAGAPVSAG [r14_569_JUSTAS] — higher, -0.0411 ± 0.041 kcal/mol
- SAGGSAGGMTLTVDLPLPDGGTVRLEVEPLPDGTVRVRLTYPDGRKAEFETSAPVEVLLERAAGSAGGSAGG [r6_808_TrMRF] — higher, 1.61 ± 0.026 kcal/mol
- SAGGEEVTIKLSDELRDLVPDAEIRVERLEDGTLRIEIRVRLPAPEPPEPVERREERRVEVRVEVRLESAGG [r13_129_TrROS_Hall] — higher, 1.98 ± 0.16 kcal/mol
- SAGGSLVYRLVLRRGDKVLVVTAPFDSPSDALAAASRLLPGGAELLLEFFDPRTGEPLGTVPFRSVSAGGSA [r2_390_TrMRF] — higher, 2.257 ± 0.015 kcal/mol
- SAGGSAMTPVTLEITSEEELEAKIEELAPPGRTVTINVTSTTEKTRVEDDVTRDYTVVTANVTFPPSAGGSA [r15_95_JUSTAS] — higher, 0.181 ± 0.1 kcal/mol
- SAGGGELYIMFKFDFTFWINNGTISFDMYIMIRIPIPPPPVPIELEDDPDGSYKYEYPNGKEHEVPNSAGGS [r16_136_TrROS] — higher, 3.15 ± 0.1 kcal/mol
- SAGGSAGGSAGGMTIEINGKKYEIVEVKEEKGKLTLKIKVNGKLLEIEIDKDKNEIKIYPSAGGSAGGSAGG [r7_553_TrROS_Hall] — higher, 3.44 ± 0.14 kcal/mol
- SAGGSAGGSAGGSVYIDPDKGYLVMWNEEDGYIVKYPIDPPNKIPSVDIEPIPPGDPLFSAGGSAGGSAGGS [r4_409_TrROS] — higher, 1.51 ± 0.074 kcal/mol
- SAGGSAGGSAPDIKIEKIGENTYKITLNFEFTFEDGSKVKVKITFTFTVNFPEDDPLLKELFSAGGSAGGSA [r18_215_TrMRF] — higher, 2.71 ± 0.061 kcal/mol
- SAGGSAGGSAGERLTADELRKLAEELGLPAEITVERKEDGTYTVTITVDGKTYKIEIKLDSAGGSAGGSAGG [r11_410_TrROS_Hall] — higher, 2.38 ± 0.096 kcal/mol
- SAGMKPIVELLKKEPNPKVILVEVFPTGGEAKIVVKDKVYVFPVKPGPGRRVLVVDPDGKILEVKPFPVSAG [r5_329_TrMRF] — higher, 0.596 ± 0.15 kcal/mol
- SMIIPPELGFEEAVELIKELLEPEKTYLVVTGDPETGTLSVARLDPETGEVEVEPLPTTEGESFVAVFEISA [r9_1059_TrMRF] — higher, 1.09 ± 0.044 kcal/mol
- SANMDMPPGFKPIARDDDITIWQNPNPVYIMIRGPDGKHKMLPFNPGDPEKIKDLIREFADDGITDIMISAG [r14_12_TrROS] — higher, 1.43 ± 0.016 kcal/mol
- SAGGPKKAIEILKKEGFTIKSVDPKKKKVIATPKETDIPIEIYVIGDDKVLIVEYLKGKPIIKEFKKSAGGS [r16_197_TrMRF] — higher, 0.834 ± 0.04 kcal/mol
- SAGGSAGGSAGGGMSTAVLKIDDKWVPVRIYPDSVVIEYPDGSTKTISLSEIPENLIELPSAGGSAGGSAGG [r7_748_JUSTAS] — higher, 2.2 ± 0.12 kcal/mol
- SAGGSAGGSAGLTKPVEVEVEEDGTVTIKTLSIVPVDDGYELHEETTEIPLSPEEIAALQSAGGSAGGSAGG [r17_415_JUSTAS] — higher, 0.504 ± 0.035 kcal/mol
- SAGGKIPKNAKILEVEFDPETGYIRIKVEFYDKNGKLIKKAEITIPILPVPPLSPEDIEKLLKALASSAGGS [r16_697_TrMRF] — higher, 3.15 ± 0.12 kcal/mol

Assay: folding stability dG unfold from chymotrypsin proteolysis; higher = more stable
How it was run: as §1

Point of comparison: “SAGGSAGGSKKVKEVTITVKNKDGKTVKITKIYKKKDGSKYVLIKDKKTKKTYKISLEDLKKLSAGGSAGGS [r12_488_TrROS_Hall]”, “folding stability dG unfold” value 2.29 ± 0.076 kcal/mol. Against it:
- SAGGSAGIAKKNNLTLKVTVEKKGDKLLVTVEITYPDGTKKTITIELNIKLVPEVPPVHPDEPGFGSAGGSA [r15_843_TrMRF] — higher, 2.83 ± 0.1 kcal/mol
- TIVIENASVEQIKNAIKEAIKEGKEVKIIIKASPEEKEKIIEELKKLPEIKKVEKLPNGSIKITIKAKELKS [r1_324_TrROS_Hall] — within error, 2.82 ± 0.69 kcal/mol
- SAGGSAGGSAGASLKEELGFAEVLSRSPTPDTEPLLLKHPEGGELVTVEVDAATAVEWLESAGGSAGGSAGG [r11_630_JUSTAS] — lower, 0.424 ± 0.17 kcal/mol
- SGFTFSTLIAPDESLSITVKEPNSSTTTSFDFTVDPATGAVSATATTTPPDGKTQTFSVTIPVSPGAAALSA [r9_770_JUSTAS] — lower, 0.924 ± 0.18 kcal/mol
- SAGGSAGGSAGWLMIMFPIPPNADNVRIKWPDGPTQEHEMEPGSPVMIMIPPGNIKIEVDSAGGSAGGSAGG [r11_52_TrROS] — lower, 1.24 ± 0.091 kcal/mol
- SAGGSAGGKIIINGKEIEPGETITLPNGLKLEVVDGKIKLVVRDEETGEEKEITLSAEELKKLLSAGGSAGG [r6_940_TrROS_Hall] — higher, 3.26 ± 0.086 kcal/mol
- SAGGSAGGSAPDNVEIEVYELPAGMYRVKIWPPGGNRHEFNFPPGEPKKIKIPPGVSIEIWPFSAGGSAGGS [r12_517_TrROS] — lower, 0.763 ± 0.29 kcal/mol
- SDYMPVHKMESDGKRNPNGQHEYEPKMEPVWVPVPPPPPRIRIPPEWREKLKELAEKLGHPITDDDINKISA [r9_487_TrROS] — lower, 0.0759 ± 0.051 kcal/mol
- SAGGSAGGSAGMKTTTLEVSTDPSGYTTTKTKIEIINENTPSISTSTVVTAVTPPAPPIASAGGSAGGSAGG [r11_830_JUSTAS] — lower, 0.122 ± 0.11 kcal/mol
- SAGGSAGGPKEYYRVTVYVRNKDGEWEKVAEIEVPGMTEEELKELLAKLGLPPGAEVEIKIEKVSAGGSAGG [r6_88_TrROS_Hall] — higher, 4.92 ± 0.15 kcal/mol
- SAGGSAKPVIVKIHFPNMKPEKILELAKEFGAVPLKMDPNKGVAIVLATEEKVEEIAAKGNFKIEASAGGSA [r15_731_TrMRF] — lower, 0.205 ± 0.39 kcal/mol
- SAGGSAGGSAGGNEEDIEKAVKEAKEKGENAEVKVTLPNGKEETVYIEVNVKEPSEKLKSAGGSAGGSAGGS [r10_573_JUSTAS] — lower, -1.04 ± 0.22 kcal/mol
- SAGGYDFDPRGEFPFPNGVKVEVWEMTWPDGNPMTMIEIEATIPPPPKPPMSPEDAKENNKDMAKNNSAGGS [r16_8_TrROS] — lower, 0.403 ± 0.16 kcal/mol
- SAGGSAGGMIKITITVPPGVSPEFVREKIAPLGVEVLSVEPLPDGTHRVTIEIPPEITKNPELLSAGGSAGG [r6_470_JUSTAS] — lower, 1.18 ± 0.023 kcal/mol
- SAGGKELILKLKIEVNGKTLTIEVKVSPEELKKLLDELKKLGIKEIEIESIEFDKETNEIKVKVKVKSAGGS [r8_219_TrROS_Hall] — higher, 4.09 ± 0.17 kcal/mol
- SAGGSAGGSKKKTVEEILKELKKKKNKIIKIKYKDGSTYYINIKTGKIIKLKNIKNVKIEILPSAGGSAGGS [r20_44_TrROS_Hall] — higher, 4.44 ± 0.1 kcal/mol
- SHWVRKELQEKGYPVKDIEMNPPQGYFYITIQRKRPRKGKPKKKEITIPMDPNMTPDNMLWMARNALDAYSA [r9_184_TrROS] — lower, 0.594 ± 0.14 kcal/mol
- SAGGMVEIELVPMSEEELKKLREELPENEILIVVKEDGLVLIVRVEKSEEEAEKLAEELRKLLEELPSAGGS [r16_311_TrROS_Hall] — lower, 0.935 ± 0.14 kcal/mol
- SVYIPIPMGDPEGLKEMLDFIKNILEKNQENGYENVPIPIHMPNGGPFEFPIDPNSTLEEQLDQIEKFIESA [r9_127_TrROS] — lower, 0.663 ± 0.078 kcal/mol
- SAGGKVVVVPFPGPVTPETVAALAAKFIEEGLYDVPLVVVSEVEGRRPDGRPGRRRFGFVYVAKAPKSAGGS [r16_44_TrMRF] — lower, 1.98 ± 0.13 kcal/mol
